Experimental data published in a protein production outcome set (Wang et al. 2014).

Assay: label from the status in PepcDB records

| Sequence | protein production |
| --- | --- |
| MSDRIASEKLRSKLMSADEAAQFVNHGDKVGFSGFTGAGYPKALPTAIANRAKEAHGAGNDYAIDLFTGASTAPDCDGVLAEADAIRWRMPYASDPIMRNKINSGSMGYSDIHLSHSGQQVEEGFFGQLNVAVIEITRITEEGYIIPSSSVGNNVEWLNAAEKVILEVNSWQSEDLEGMHDIWSVPALPNRIAVPINKPGDRIGKTYIEFDTDKVVAVVETNTADRNAPFKPVDDISKKIAGNFLDFLESEVAAGRLSYDGYIMQSGVGNVPNAVMAGLLESKFENIQAYTEVIQDGMVDLIDAGKMTVASATSFSLSPEYAEKMNNEAKRYRESIILRPQQISNHPEVIRRVGLIATNGLIEADIYGNVNSTNVSGSRVMNGIGGSGDFTRNGYISSFITPSEAKGGAISAIVPFASHIDHTEHDVMVVISEYGYADLRGLAPRERVAKMIGLAHPDYRPLLEEYYARATSGDNKYMQTPHDLATAFDFHINLAKNGSMKA | not failed |
| MCDKDIYNNKEMIILNKQQVTKAIEKVLNSSKIGVLSTAHHNKPNSRYMVFYNDDLNLYTKTNVNSLKVEEIENNPDAHILLGYNETTNNSFVEIDATIEVVKDQKVIDWLWETQDKTFFNSKEDPELCVLKVIPRSIKLMNDDELDTPATIEL | not failed |
| MGLKSNSAILPKALFCWSGGKDSAYCLHKVLLEKQFDVCYLLTTVNDTFKRISMHGVRETLLDKQTESIGIPCIKIRIKEGTNSEYEQLMETTLLKAKEEGITHVIFGDIFLEDLRTYRENNLDKVGLQAVFPLWKMDTGILIRDFIRKKFKTILCCINDGYLDETWAGREIDAVFIAQLPGHVDPCGENGEYHTFCYDGPLFQKAITVSTGEKIYKPLDYSLDDVCQSTVPTKGFWYCDLIPD | failed |
| MQESVVRVDYDSLETCKNFKPSVGTELIVLEKDIAHARFKGNESMVYEENFVHAGFVLIACNYAALCALNKRHSVVVSNNINFYAPLELNQEALIKAQVIQDGVKKAEIKIEAFVLDIQVLEGMIEIVVFDKKPFKFNFKEELEHHHHHH | failed |
| MKPALVVVDMVNEFIHGRLATPEAMKTVGPARKVIETFRRSGLPVVYVNDSHYPDDPEIRIWGRHSMKGDDGSEVIDEIRPSAGDYVLEKHAYSGFYGTNLDMILRANGIDTVVLIGLDADICVRHTAADALYRNYRIIVVEDAVAARIDPNWKDYFTRVYGATVKRSDEIEGMLQEDQIET | not failed |
| MNTPHGPLEYSLNSPFKAKGRFGRLSFAAWSFVSTLAIIGMLLVISVVFGALASDSNAIQIFGSLLLIAIYVTFLVFSVIFIIRRLHDRNHNGWFAILFFIPIINLIFIIYLLCAKGDIETNRFGAPRATPSWERVMGWIYIVLMPIVVILGVSSDAMMAYQRYTLHSKQVSDVSQMIQPVSTHNNRLS | failed |
| MIKEWATVVSWQNGQALVSCDVKASCSSCASRAGCGSRVLNKLGPQTTHTIVVPCDEPLVPGQKVELGIAEGSLLSSALLVYMSPLVGLFLIASLFQLLFASDVAALCGAILGGIGGFLIARGYSRKFAARAEWQPIILSVALPPGLVRFETSSEDASQ | failed |
| MLNNFLNLELLNISLSYPFLFLITTAIVLLLCSGFWKFHRSFYIGISSLSLIVSAFLILNNANAQGLEAKAFLATLNNDIVSFYASLVILCFSFLYLLMQKEENQGEFYALFLFMIASLLLMVSSSNLVLIFIGLESSSLALYTLIAMRGSDNAISSAIKYFSIAAVGAGFFVMAVAFIYLKTGTLDLSANLALKNEFQKDPMLLGAGVMIFVLCAIKLSLAPFHFWLKDVYYAAHTNLVAFISVVPKVAMLVVVIRLFDFLNNTGFEYIIIVLAIFSMLIGAFAALSQNNIKKMFAYSSVVHSSLVLIACIPLLKEQNFDGILLAIFGYWTLFAFANYAVFMILSNYENNSYESLNGLLVKKPLIAFCLSISVLSLAGIPPFGVFWGKFMILNTVILNGYWYLALFVALSSVIMLYAYLKILIHVLFMKNDRVYNIKFSFIQNFILAFCVCVSIFAILLML | failed |
| MEITTLQIVLIFIVACVSGMGSILDEFQFHRPLVACTLIGAVLGDLKTGIIIGGTLEMIALGWMNIGAAVAPDAALASIISTILVIAGGQGIGAGIALAIPLAAAGQVLTIIVRTITVAFQHAADSAAERGNLTAISWIHVSALLLQAMRIAIPAVIVAVSVGTDTVHALLNSIPDVVTNGLNIAGGMIVVVGYAMVINMMRAGYLMPFFYLGFVTAAFTEFNLVALGVIGIVMAVLYIQLSPKYNKVQGQSVTSGNNGLDNELD | failed |
| MQAVLNFPDLSPELFSISLFGMEFALRWYALAYIAGIVIAWRLAVLATRRAALWPANTPPMAPARIEDLLTWIILGVILGGRLGFVLFYQPAYYLANPTEILMVWQGGMAFHGGLLGVVIAAWLYSLRHNIPKLSLADLITHTVAPGLLLGRLANFINAELWGRPSDLPWAVIFPGPAAQACPGVVGLCARHPSQLYEAALEGLLLGTLLLWLVWRRGALKRPGLITGVFLAGYGLSRFVVEFFRQPDAQFVTPGNPLGLAWQVGEYGLTMGQLLSLPMIALGLWFVLRARAVPA | failed |
| MQGIPLGSEYFEKLDPYFLVCIAKEYLLFCPKQPRLPGQIVSPLLKQVAVILNPVVKAAPALIDPLYLMAQVRYYSGELENAQSILQRCLELDPASVDAHLLMCQIYLAQGNFGMCFHCLELGVSHNFQVRDHPLYHLIKARALNKAGDYPEAIKTLKMVIKLPALKKEEGRKFLRPSVQPSQRASILLELVEALRLNGELHEATKVMQDTINEFGGTPEENRITIANVDLVLSKGNVDVALNMLRNILPKQSCYMEAREKMANIYLQTLRDRRLYIRCYRELCEHLPGPHTSLLLGDALMSILEPEKALEVYDEAYRQNPHDASLASRIGHAYVKAHQYTEAIEYYEAAQKINGQDFLCCDLGKLLLKLKKVNKAEKVLKQALEHDIVQDIPSMMNDVKCLLLLAKVYKSHKKEAVIETLNKALDLQSRILKRVPLEQPEMIPSQKQLAASICIQFAEHYLAEKEYDKAVQSYKDVFSYLPTDNKVMLELAQLYLLQGHLDLCEQHCAILLQTEQNHETASVLMADLMFRKQKHEAAINLYHQVLEKAPDNFLVLHKLIDLLRRSGKLEDIPAFFELAKKVSSRVPLEPGFNYCRGIYCWHIGQPNEALKFLNKARKDSTWGQSAIYHMVQICLNPDNEVVGGEAFENQGAESNYMEKKELEQQGVSTAEKLLREFYPHSDSSQTQLRLLQGLCRLATREKANMEAALGSFIQIAQAEKDSVPALPALAQAYVFLKQIPKARMQLKRLAKTPWVLSEAEDLEKSWLLLADIYCQGSKFDLALELLRRCVQYNKSCYKAYEYMGFIMEKEQSYKDAVTNYKLAWKYSHHANPAIGFKLAFNYLKDKKFVEAIEICNDVLREHPDYPKIREEILEKARKSLRP | failed |
| MSNDQSAMNELHWLIDMVQTIEVGLVVLDRDYNIQLWNGFMENHSGVSPNSIKGQNLFSRFPDLPATWLKQKMESVFMLKNRAFISWEQRPYVFQFKNYRPITGRADFMYQNVTLLPLASLTGKITHISVIVYDVTDIAVNKLQLKAANEQLERLSQTDGLTQLHNRRHWQQCLEHEYDLYARYSGIASLVMIDIDHFKNINDTYGHLAGDKVIQHIAHILSHSLRETDCAGRYGGEEFAVVMPSTCGADALNFTERLREKIASSTVVYEGLKIKVTVSLGVCELGKHISSSSSWISCSDKALYEAKQKGRNCTVLHCAPTSAE | failed |
| MKKWFPALLFSLCVSGESSAWNHNIVFYSLGNVNSYQGGNVVITQRPQFITSWRPGIATVTWNQCNGPEFADGSWAYYREYIAWVVFPKKVMTQNGYPLFIEVHNKGSWSEENTGDNDSYFFLKGYKWDERAFDAGNLCQKPGETTRLTEKFDDIIFKVALPADLPLGDYSVTIPYTSGIQRHFASYLGARFKIPYNVAKTLPRENEMLFLFKNIGGCRPSAQSLEIKHGDLSINSANNHYAAQTLSVSCDVPANIRFMLLRNTTPTYSHGKKFSVGLGHGWDSIVSVNGVDTGETTMRWYKAGTQNLTIGSRLYGESSKIQPGVLSGSATLLMILP | failed |
| MALVLTFLGKGGVGRTTVAIAAAKKLAQAGQRVLVLGQDPSLAWQWGITLSETAQGVEANVDGLLLSSTHLLERGWEKLKEVEAQYLRSPALKNIYGEELGVLPGMDEVLVLNALREYELSGRYDVLIYDGPGNLSTLRMLGIPEIASWYWRRFQKVLADSEVVQTLSPFVQPVASAVLSVNWSPDQMLNHPDGPQNLLQQGKAAIADPNRFAAYLVTSTDSLAQKAAQSYWGGAQQVGVTVKGVIQTPLGNGSLDANLFDPLLIAALPSYNQGNWQPLMDALPNPQAMGSAPRPLEIDVNARQVKVFLPGFDKRQVKLTQSGPELTIEAGDQRRNIDLPGNLRGKGVTGAKFQGGYLIVSFLEHHHHHH | failed |
